Here are results for three molecules from patent US20250129175A1 (SUNSHINE GUOJIAN PHARMACEUTICAL SHANGHAI, published 2025).

The term EC50 denotes the midpoint of the concentration-response curve. Higher therefore signals lower potency in that assay. For orientation: Kd means the equilibrium constant for the complex coming apart. As usually defined, the koff is the first-order rate constant of dissociation. A high value points to a short-lived complex. In general, kon refers to the rate constant with which the complex forms. A high value points to fast association.

One assay has as its target T1, CD38-ECD-Cyno (cynomolgus monkey, UniProt Q5VAN0 44-301).
T1 construct: Recombinant protein expressed in HEK293F cells and purified on Ni-NTA; Coated on the ELISA plate at 10 ng/well; also called cynomolgus monkey CD38; cynomolgus monkeys CD38; not shown: polyhistidine tag added at the end of the gene
In words: ELISA, plate coated with CD38-ECD-Cyno (10 ng/well), anti-human Fc-HRP detection. As to the method:
The microplates were coated with corresponding recombinant proteins and closed with PBST containing 1% bovine serum albumin (PBST is a phosphate buffer containing 0.05% Tween-20). The tested antibody was diluted in a gradient and it was transferred to a microplate coated with recombinant protein. The sample was incubated at room temperature for half an hour. After washing the plate, appropriately diluted HRP (Horseradish Peroxidase) labeled sheep anti human antibody (Fc specific, purchased from Sigma) was added and incubated at room temperature for half an hour. After washing, 100 μL color developing solution with TMB(3,3′,5,5′-Tetramethylbenzidine) as substrate was added to each well and incubated at room temperature for 1˜5 min. The reaction was terminated by adding 50 μL termination solution (2 M H₂SO₄). The board reader (SpectraMax 190) reads OD450. GraphPad Prism7 was used for mapping and data analysis, and EC50/IC50 was calculated.
Microplate (10 ng/well) was coated with CD38-ECD-Cyno, and the binding ability of CD38-ECD-Cyno to 50G12-Hu-IgG1, OKT10-Hu-IgG1, Daratumumab-IgG1, and Isatuximab-IgG1 was determined by ELISA.
A general note: ELISA stands for enzyme-linked immunosorbent assay.

The target of a further assay is T2, Human CD38 protein (human, UniProt P28907 43-300, limits assumed, biotinylated with EZ-Link NHS-LC-Biotin (sites not given)).
T2 construct: Biotinylated and captured on a Biacore CAP chip; also called CD38-biotin; Biotin-CD38
In words: SPR, Biacore 8K, biotinylated CD38 captured on CAP chip, antibody as analyte, 1:1 model. A general note: SPR reads the build-up and loss of mass on a sensor chip optically.

T1 sequence (Q5VAN0 44-301): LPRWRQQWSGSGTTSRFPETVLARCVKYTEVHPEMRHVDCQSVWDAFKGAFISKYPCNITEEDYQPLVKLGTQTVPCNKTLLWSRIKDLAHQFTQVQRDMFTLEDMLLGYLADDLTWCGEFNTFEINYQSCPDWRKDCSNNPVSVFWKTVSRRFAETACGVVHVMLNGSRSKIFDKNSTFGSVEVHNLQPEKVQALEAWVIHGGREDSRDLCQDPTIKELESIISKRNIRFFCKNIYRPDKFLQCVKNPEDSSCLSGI

B1: OKT10-Hu-IgG1 (antibody, V domains shown)
VH: EVQLVESGGGLVQPGGSLRLSCAASGFDFSRSWMNWVRQAPGKGLEWVSEINPDSSTINYTTSLKDRFTISRDNAKNSLYLQMNSLRAEDTAVYYCARYGNWFPYWGQGTLVTVSS
VL: DIQMTQSPSSLSASVGDRVTITCKASQNVDTNVAWYQQKPGKAPKALIYSASYRYSGVPSRFSGSGSGTDFTLTISSLQPEDFATYYCQQYDSYPLTFGQGTKVEIKR
notes: Humanized anti-human CD38 IgG1/kappa; also called humanized OKT10
For B1, a half-maximal effect in the assay with CD38-ECD-Cyno (EC50) was put at 0.132 nM.

B2: 50G12-Hu-IgG1 (antibody)
heavy: not shown
light: DIQMTQSPSSLSASVGDRVTITCTASSSVSSSYLHWYQQKPGKAPKLWMYGTSNLASGVPSRFSGSGSGTDYTLTISSLQPEDFATYYCHRYHRSPWTFGQGTKVEIKRTVAAPSVFIFPPSDEQLKSGTASVVCLLNNFYPREAKVQWKVDNALQSGNSQESVTEQDSKDSTYSLSSTLTLSKADYEKHKVYACEVTHQGLSSPVTKSFNRGEC
notes: Humanized anti-human CD38 IgG1/kappa, expressed in HEK293F cells and purified on Protein A; also called 50G12-Humanized; unmutated antibody 50G12-Hu-IgG1
For B2, in the assay with Human CD38 protein, binding was characterised by a dissociation constant (Kd) of 3.58 nM, the koff came to 0.000613 s⁻¹ and the association rate constant (kon) was 171000 M⁻¹ s⁻¹.

B3: 50G12-L309W-E345R (antibody, human IgG1, kappa)
heavy: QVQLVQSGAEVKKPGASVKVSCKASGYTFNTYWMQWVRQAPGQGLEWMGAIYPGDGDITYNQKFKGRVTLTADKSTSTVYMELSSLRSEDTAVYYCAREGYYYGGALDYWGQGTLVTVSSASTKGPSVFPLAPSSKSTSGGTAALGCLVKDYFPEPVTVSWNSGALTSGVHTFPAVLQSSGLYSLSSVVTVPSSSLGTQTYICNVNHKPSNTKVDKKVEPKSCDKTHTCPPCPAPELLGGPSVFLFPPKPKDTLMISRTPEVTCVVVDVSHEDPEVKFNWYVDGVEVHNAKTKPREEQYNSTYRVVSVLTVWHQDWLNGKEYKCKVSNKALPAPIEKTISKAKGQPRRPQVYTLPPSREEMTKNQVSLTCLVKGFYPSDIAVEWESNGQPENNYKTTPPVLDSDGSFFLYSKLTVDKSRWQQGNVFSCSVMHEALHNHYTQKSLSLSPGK
light: B2 light
notes: also called 50G12-Hu-IgG1-L309W-E345R
In the assay with Human CD38 protein, B3 showed a Kd of 2.99 nM, a koff of 0.00103 s⁻¹ and a kon of 346000 M⁻¹ s⁻¹.
